{
  "source": "paper doi:10.1101/2023.01.21.525003",
  "about": "(bioRxiv, 2023)",
  "molecular_target": "Gluc-LHCGRv4 (Gaussia luciferase fused to the N-terminus of the luteinizing hormone/chorionic gonadotropin … (human, UniProt P22888 27-699))",
  "sequence (P22888 27-699)": "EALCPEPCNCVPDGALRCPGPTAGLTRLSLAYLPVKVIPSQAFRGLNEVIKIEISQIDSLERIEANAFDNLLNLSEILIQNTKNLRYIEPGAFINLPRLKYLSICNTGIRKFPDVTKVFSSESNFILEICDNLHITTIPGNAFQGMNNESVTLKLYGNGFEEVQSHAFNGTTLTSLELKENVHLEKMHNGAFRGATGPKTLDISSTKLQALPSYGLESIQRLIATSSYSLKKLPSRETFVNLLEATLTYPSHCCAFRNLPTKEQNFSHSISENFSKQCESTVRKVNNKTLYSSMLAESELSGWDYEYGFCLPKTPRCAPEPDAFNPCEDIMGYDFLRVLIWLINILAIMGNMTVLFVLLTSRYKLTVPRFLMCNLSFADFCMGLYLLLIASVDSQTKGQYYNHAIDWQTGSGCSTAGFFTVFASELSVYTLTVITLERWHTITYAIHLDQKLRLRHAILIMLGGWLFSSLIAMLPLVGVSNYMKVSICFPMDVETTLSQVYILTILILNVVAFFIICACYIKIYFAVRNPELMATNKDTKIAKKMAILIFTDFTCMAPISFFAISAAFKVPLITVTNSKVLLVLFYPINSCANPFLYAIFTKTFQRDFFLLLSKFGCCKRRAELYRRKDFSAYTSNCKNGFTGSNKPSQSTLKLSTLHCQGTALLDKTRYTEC",
  "test": "FRET or BRET",
  "data": [
    {"binder": "LHB^WT-eGFP/CGA (luteinizing hormone: LH beta subunit fused to eGFP, co-expressed with the common glycoprotein alpha subunit) (complex) chain 1: SREPLRPWCHPINAILAVEKEGCPVCITVNTTICAGYCPTMMRVLQAVLPPLPQVVCTYRDVRFESIRLPGCPRGVDPVVSFPVALSCRCGPCRRSTSDCGGPKDHPLTCDHPQLSGLLFL chain 2: not shown", "values": [
      {"measurement": "BRET ratio, fold over stimulation with unlabeled hormone", "value": 4, "unit": "fold"}
    ]}
  ]
}
